Earlier results in patent US20060193824A1, “Methods for the treatment of infectious and inflammatory airway diseases” (priority 2005, published 2006).

Legend:
[1] = test system: respiratory epithelial cells

B1: IL-4: cytokine obtainable from R & D Systems (protein, UniProt P05112 25-153, looked up)
Interleukin-4: HKCDITLQEIIKTLNSLTEQKTLCTELTVTDIFAASKNTTEKETFCRAATVLRQFYSHHEKDTRCLGATAQQFHRHKQLIRFLKRLDRNLWGLAGLNSCPVKEANQSTLENFLERLKTIMREKYSKCSS
mucus production (mucus production): modulates mucus production

B2: IL-10: cytokine obtainable from R & D systems (protein, UniProt P22301 19-178, looked up)
Interleukin-10: SPGQGTQSENSCTHFPGNLPNMLRDLRDAFSRVKTFFQMKDQLDNLLLKESLLEDFKGYLGCQALSEMIQFYLEEVMPQAENQDPDIKAHVNSLGENLKTLRLRLRRCHRFLPCENKSKAVEQVKNAFNKLQEKGIYKAMSEFDIFINYIEAYMTMKIRN
inflammation (inflammation): attenuates excessive inflammation

B3: Human neutrophil elastase: Human neutrophil elastase (protein, UniProt P08246 30-267, looked up)
Neutrophil elastase: IVGGRRARPHAWPFMVSLQLRGGHFCGATLIAPNFVMSAAHCVANVNVRAVRVVLGAHNLSRREPTRQVFAVQRIFENGYDPVNLLNDIVILQLNGSATINANVQVAQLPAQGRRLGNGVQCLAMGWGLLGRNRGIASVLQELNVTVVTSLCRRSNVCTLVRGRQAGVCFGDSGSPLVCNGLIHGIASFVRGGCASGLYPDAFAPVAQFVNWIDSIIQRSEDNPCPHPRDPDPASRTH
MUC5AC levels [1]: increase MUC5AC levels
